# Data from the supplement of paper PMC10126150.
# ± gives the standard deviation of the averaged measurements.
# Tested on: ATP
# Experiment: switch fluorescence ratio, 500 uM ATP over buffer (Cy3 cluster intensity, sum of 5 cycles each) (fold (ratio)); higher = stronger signal-on switching upon ATP binding; sequences stand for … in TCGTCGGCAGCGTCAGATGTGTATAAGAGACAGTTTTTTTTTTTTTTTTTTTTTTTTT…TC
# Details: aptamer strand: ATP DNA aptamer (quencher-CACCTGGGGGAGTATTGCGGAGGAAGG + anchor), 100 nM annealed; ATP concentration: 500 uM
# In short: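 Imaging in selection buffer was followed by imaging after 15 min with 500 uM ATP at 22 °C, for Cy3-labelled switching-strand clusters annealed to 100 nM quencher-labelled ATP aptamer on a modified Illumina MiSeq flow-cell. Five of these buffer/ATP cycles ran, separated by NaOH stripping and re-annealing. The fluorescence ratio per cluster is summed target-cycle over summed buffer-cycle Cy3 intensity, averaged per switch-domain sequence; clusters outside 100-1000 RFU were removed.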
# 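Note: ATP exposure 15 min at 22 °C before imaging.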
row,Sequence,switch fluorescence ratio
1,TACTCGTTGA,1.04 ± 0.021
2,TCCGGTTGCA,2.49 ± 0.12
3,AGGAGGCCAG,0.969 ± 0.05
4,GCTTTGATTT,1.02 ± 0.022
5,TTTATAAATG,1.014 ± 0.0017
6,TGGGTGGTTG,1.02 ± 0.035
7,TTCAGGCTGT,0.9811 ± 0.0054
8,GTGGCAAAGA,0.993 ± 0.023
9,TTGGTGTTAG,0.973 ± 0.031
10,ATGGAAATGG,0.996 ± 0.024
11,TTAGTTGGGC,1.01 ± 0.069
12,TGTGTTTGGT,0.979 ± 0.021
13,TGGTGGGGCA,0.977 ± 0.064
14,AGGGTGTGCA,0.999 ± 0.049
15,TTAGGTTATT,0.9786 ± 0.0027
16,GTTGGTGATT,0.9959 ± 0.0062
17,GTTGATAGGA,0.988 ± 0.03
18,TGAATACGGG,1.006 ± 0.004
19,AGGTAATGGT,0.998 ± 0.039
20,GTAGCGAGAG,2.11 ± 0.24
21,GATGTAACAA,0.998 ± 0.035
22,CAGGTCGCTT,1.01 ± 0.0019
23,GAGGCTGGGC,0.973 ± 0.053

row,Sequence,switch fluorescence ratio
1,GATGGGGAGT,0.9715 ± 0.0057
2,AACGGTTTTT,0.972 ± 0.036
3,TTGAGGATGT,1 ± 0.034
4,TAGTTGTTGC,0.977 ± 0.021
5,CGACATACGA,1.56 ± 0.033
6,CTGCTAGACC,1.21 ± 0.036
7,GGTCATGAGG,0.989 ± 0.023
8,CCGGTCAGCC,1.11 ± 0.039
9,AAGAGACGGG,1.009 ± 0.0018
10,ACTGCTGGGA,1.01 ± 0.015
11,TATGAGTTGC,1.03 ± 0.011
12,AGCACATGTC,1.07 ± 0.027
13,ATTTTACCTC,1.05 ± 0.13
14,CTTTTATTGG,1 ± 0.029
15,GGTTGTTTGG,0.989 ± 0.02
16,CACAGGGGAC,1.11 ± 0.05
17,AATACTACAG,1.08 ± 0.024
18,TCCAGGTAGT,1.594 ± 0.012
19,TTGAAGGCGT,1 ± 0.026
20,TCGGGGCAGG,0.988 ± 0.013
21,TTGCTCTAGC,1.03 ± 0.018
22,GGGGTATGTC,1.02 ± 0.053
23,CGCTCCGGAG,1.18 ± 0.14

row,Sequence,switch fluorescence ratio
1,GGTAACACCA,1.015 ± 0.0095
2,TTCGGGCGCG,0.952 ± 0.021
3,TTTTATGC,1.01 ± 0.061
4,ATACTATATT,1.05 ± 0.017
5,GTTATACGAA,1.028 ± 0.0085
6,ACTTTGGCGT,1.03 ± 0.014
7,ACTTCAGGGA,1.01 ± 0.024
8,ACCCTCTGGG,1.01 ± 0.021
9,TTTGCTGGTA,1.006 ± 0.0064
10,TTGTAACCAG,1.0005 ± 0.001
11,TTTCCTGGCT,1.02 ± 0.032
12,GGGTCTGAGT,0.9621 ± 0.009
13,TTCATGGATA,0.999 ± 0.066
14,ACGCTTTGCA,0.987 ± 0.01
15,GTGGGGTATT,0.977 ± 0.028
16,AGGTTTTTCT,0.987 ± 0.024
17,TCATATTGCG,0.983 ± 0.019
18,GTTGTGCTGG,1.01 ± 0.018
19,AACAGTTGTG,0.976 ± 0.017
20,GAGCGGGTTG,0.9835 ± 0.0056
21,TTTCATAGTT,0.954 ± 0.017
22,GCGGGTATTG,0.964 ± 0.038
23,TCATGACCCA,1.03 ± 0.018

row,Sequence,switch fluorescence ratio
1,CTATCTATTG,0.9923 ± 0.0014
2,GATGACTTTT,1 ± 0.023
3,TGTGTTAGG,1.01 ± 0.03
4,TTTGAGTTT,0.981 ± 0.012
5,GTTACATTAA,1.01 ± 0.021
6,GTTACGGGGA,1.02 ± 0.051
7,TCGAAGCCAG,1.061 ± 0.0045
8,AGTGATTGAA,0.987 ± 0.033
9,CCGTTTTTAC,4.11 ± 0.83
10,GGGCTGGTTT,0.981 ± 0.02
11,AAGTTGCGTT,1.01 ± 0.015
12,TATGATTCAG,0.98 ± 0.012
13,TGGTGGGTTT,1 ± 0.029
14,AGGTCAGCTG,0.99 ± 0.018
15,TTTGTGTGTT,1.02 ± 0.024
16,TGGGTGGGGA,1 ± 0.036
17,GGGTAGTCGG,0.993 ± 0.032
18,AGACGAAGT,1 ± 0.019
19,CATGGAATAG,1.07 ± 0.011
20,GAAATGATTC,1 ± 0.024
21,GCCGTTTTAC,1.17 ± 0.05
22,GGTTGGTACT,1 ± 0.026
23,TAAGAGGTGT,1.04 ± 0.062

row,Sequence,switch fluorescence ratio
1,GAAGGTATAC,1.66 ± 0.18
2,CACAAAAGTG,1.02 ± 0.02
3,CTGCCAGGTT,1.146 ± 0.0052
4,AGCCGTTTTT,0.973 ± 0.038
5,CTTTAATCAA,0.991 ± 0.013
6,TTGTCGGATT,0.991 ± 0.021
7,GGTAGCAGGG,1.014 ± 0.0097
8,GGCGTTTGTC,1.03 ± 0.032
9,ACGCTGTTGA,1.03 ± 0.047
10,AGGTGGGTGG,1.02 ± 0.04
11,GTTTGGATGC,0.963 ± 0.03
12,TTATTATTTC,0.98 ± 0.05
13,AAAAAAACA,1.2 ± 0.11
14,GACGGAGTTG,1.01 ± 0.026
15,TGGTGCATGG,1.03 ± 0.024
16,TTGGGCCTGA,1.002 ± 0.0032
17,TTGATCAGGC,0.996 ± 0.016
18,GATGCAGGGC,1.12 ± 0.081
19,CACTAACCCT,1.148 ± 0.0044
20,AGCTAGGAGC,0.972 ± 0.021
21,GTGTTAAGGG,0.979 ± 0.028
22,ATTACTCTAC,1.27 ± 0.025
23,CAACGAAGTG,1 ± 0.069

row,Sequence,switch fluorescence ratio
1,AGTAGTGGGG,0.994 ± 0.013
2,AGTGGTGTTT,0.989 ± 0.016
3,GGGCCAGGGC,1.02 ± 0.02
4,CATGGTATTT,0.9797 ± 0.0095
5,TCATGGTACG,1.06 ± 0.022
6,GAATTTGATT,1.02 ± 0.025
7,GAGGGGAACC,0.992 ± 0.032
8,GAGAGGATGG,0.984 ± 0.042
9,AGGGGGGGAC,1 ± 0.021
10,TTGATGCAA,1.07 ± 0.028
11,TTAACTTGGG,0.976 ± 0.013
12,GGGGTTTAGT,1.01 ± 0.022
13,GATCTTCGGC,0.9541 ± 0.0027
14,TTAGTTTAGG,0.9824 ± 0.0096
15,GATTTGATGA,0.9959 ± 0.002
16,GAGAATTATG,0.9933 ± 0.0023
17,ACAGGAAGAT,1.03 ± 0.035
18,ACACTAGGGC,1.04 ± 0.02
19,ACCTTTTAGG,0.965 ± 0.036
20,GGGTGCTGTG,1 ± 0.034
21,AAAAGGAGAC,1.01 ± 0.028
22,AAGGAAAGGG,1.21 ± 0.25
23,GTTAAAAGTG,0.987 ± 0.03

row,Sequence,switch fluorescence ratio
1,GTTATACATT,1.02 ± 0.011
2,GCCATCCTGC,1.05 ± 0.042
3,GGGGAAGAGG,0.983 ± 0.011
4,GGGTGGGCGT,1.05 ± 0.043
5,TGGGGCCTAA,1.02 ± 0.013
6,GCAGCCGTGT,1.03 ± 0.04
7,TGGTGGGGGT,0.999 ± 0.028
8,TAGATTCAGG,1.004 ± 0.0054
9,GCAAGTTTGC,1.04 ± 0.042
10,AGGGCAGGGC,0.917 ± 0.069
11,TTGGGGGGGA,1.02 ± 0.13
12,ACTAGGTGGG,1.01 ± 0.041
13,GATAGGGGAC,1.03 ± 0.039
14,TCTTCGGCGA,1.46 ± 0.16
15,TTTGGTTTGC,0.992 ± 0.0039
16,CAACTAAATT,1.01 ± 0.025
17,TTTTATAAGG,1.01 ± 0.023
18,GTTAAGGGGT,1.007 ± 0.0026
19,TTCTGTTTTT,1.09 ± 0.15
